Assay results taken from patent publication US10363323B2, “Hydrophobic modified peptides for liver specific diagnosis” (RUPRECHT-KARLS-UNIVERSITAT HEIDELBERG, priority 2011, dated 2019).

What was measured:
liver of a WAG/Rji rat = conditions: 400 nmol/kg i.v., five minutes post injection, WAG/Rji rat bearing CC531 colon carcinoma
Protocol: The rats were orthopically injected with 1×10^6 syngenic colon carcinoma cells (CC531 cells) 10 days prior to the measurements. At the day of measurement the rats received the peptide in a concentration of 400 nmol/kg body weight. During the experiments the rats were anaesthetised by isoflurane and kept at 37° C.

Stability in the serum = type: in vitro ADME; conditions: 37° C., non-inactivated human serum from healthy donors, over the indicated period
Protocol: The detection of degradation products was conducted by purification of the peptides by using HPLC affinity chromatography and subsequent radioactivity determination was performed on a gamma counter at the indicated time points. The correct mass of the radioactive peak fractions eluted from the column was confirmed by mass spectrometry (data not shown).

SMILES: CCCCCCCCCCCCCCCCCC(=O)N[C@@H](CCCCNC(=O)CN1CCN(CC(=O)O)CCN(CC(=O)O)CCN(CC(=O)O)CC1)C(=O)N[C@@H](CCCCNC(=O)CN1CCN(CC(=O)O)CCN(CC(=O)O)CCN(CC(=O)O)CC1)C(=O)N[C@@H](CCCCNC(=O)CN1CCN(CC(=O)O)CCN(CC(=O)O)CCN(CC(=O)O)CC1)C(=O)N[C@@H](CC(N)=O)C(=O)N[C@@H](CC(C)C)C(=O)N[C@@H](CO)C(=O)N[C@H](C(=O)N[C@@H](CO)C(=O)N[C@@H](CC(N)=O)C(=O)N1CCC[C@H]1C(=O)N[C@@H](CC(C)C)C(=O)NCC(=O)N[C@@H](Cc1ccccc1)C(=O)N[C@@H](Cc1ccccc1)C(=O)N1CCC[C@H]1C(=O)N[C@@H](CC(=O)O)C(=O)N[C@@H](Cc1c[nH]cn1)C(=O)N[C@@H](CCC(N)=O)C(=O)N[C@@H](CC(C)C)C(=O)N[C@@H](CC(=O)O)C(=O)N1CCC[C@H]1C(N)=O)[C@@H](C)O
- enrichment in the liver (PET image) (liver of a WAG/Rji rat): Specific enrichment
- degradation in non-inactivated human serum (HPLC, gamma counter) (Stability in the serum): Only radioactive decay but no cleavage was observed
